Experiment [1] has as its target Dityrosine cross-linked Aβ42 dimer [Aβ(M1-42)]DiY. In words: SEC.
The target is the same in experiment [2]. In words: centrifugation with thioflavin T read-out.

As to “Dityrosine cross-linked Aβ42 dimer [Aβ(M1-42)]DiY (peptide)”, in experiment [1], the decrease of the dimer peak at t = max is 40%. Besides, the ThT signal of the end-stage sample removed by centrifugation in experiment [2] turned out to be 80%.

(Values after publication PMC5461814.)
